Reference: patent US20100144530A1, “IDENTIFICATION OF A NEW CLASS OF EPSP SYNTHASES” (priority 2005, published 2010)

Test system: ΔaroA E. coli cells
Assay: Complementation of ΔaroA E. coli cells (functional EPSP synthase)
Assay type: cell-based
Settings: plasmid transformed into ΔaroA E. coli cells

B1: grg6: EPSP synthase ORF from Pseudomonas syringae pv. tomato strain DC3000, in plasmid pAX703 (SEQ ID NO:1/2) (protein)
chain: MRPQATLTVMPVERPLVGRVSPPGSKSITNRALLLAGLAKGTSRLTGALKSDDTRVMSEALRLMGVQVDEPDDSTFVVTSSGHWQAPQQALFLGNAGTATRFLTAALANFEGDFVVDGDEYMRKRPIGPLVDALQRMGVEISAPSGCPPVAIKGKGGLQAGRIEIDGNLSSQYVSALLMAGACGKGSLEVALTGSEIGARGYVDLTLAAMQAFGAEVQAIGDAAWKVSATGYHATDFHIEPDASAATYLWAAQALTEGNIDLGVASDAFTQPDALASQIIDSFPNMPAVIDGSQMQDAIPTLAVLAAFNRQPVRFVGIANLRVKECDRISALCDGLCAIAPGLAVEEGDDLIVHANPALAGTTVNALIDTHSDHRIAMCFALAGLKIKGIHIQDPDCVAKTYPGYWDALASLGVSVQR
In the case of B1, the “Complementation of the aroA deletion” value is reported as “complement the deletion”.

B2: grg9: EPSP synthase ORF from Agrobacterium tumefaciens strain C58, in plasmid pAX702 (SEQ ID NO:3/4) (protein)
chain: MIELTITPPGHPLSGKVEPPGSKSITNRALLLAGLAKGKSHLSGALKSDDTLYMAEALREMGVKVTEPDATTFVVEGTGVLQQPEKPLFLGNAGTATRFLTAAGALVDGAVIIDGDEHMRKRPILPLVQALRALGVEADAPTGCPPVTVRGKGMGFPKGSVTIDANLSSQYVSALLMAAACGDKPVDIILKGEEIGAKGYIDLTTSAMEAFGAKVERVSNAIWRVHPTGYTATDFHIEPDASAATYLWGAELLTGGAIDIGTPADKFTQPDAKAYEVMAQFPHLPAEIDGSQMQDAIPTIAVIAAFNETPVRFVGIANLRVKECDRIRAVSLGLNEIREGLAHEEGDDLIVHADPSLAGQTVDASIDTFADHRIAMSFALAALKIGGIAIQNPACVAKTYPGYWKALASLGVDYTEKESAAEPQH
With B2 the “Complementation of the aroA deletion” value was “complement the deletion”.
